Measured values reported in patent US20080194020A1 (MEDICAL AND BIOLOGICAL LABORATORIES, published 2008).

T1: TAP2 (mouse (endogenous in mouse DC2.4 cells), UniProt P36371 1-702)
T1 construct: Endogenous protein in the cell lysate; also called TAP1/2
T1 sequence (looked up): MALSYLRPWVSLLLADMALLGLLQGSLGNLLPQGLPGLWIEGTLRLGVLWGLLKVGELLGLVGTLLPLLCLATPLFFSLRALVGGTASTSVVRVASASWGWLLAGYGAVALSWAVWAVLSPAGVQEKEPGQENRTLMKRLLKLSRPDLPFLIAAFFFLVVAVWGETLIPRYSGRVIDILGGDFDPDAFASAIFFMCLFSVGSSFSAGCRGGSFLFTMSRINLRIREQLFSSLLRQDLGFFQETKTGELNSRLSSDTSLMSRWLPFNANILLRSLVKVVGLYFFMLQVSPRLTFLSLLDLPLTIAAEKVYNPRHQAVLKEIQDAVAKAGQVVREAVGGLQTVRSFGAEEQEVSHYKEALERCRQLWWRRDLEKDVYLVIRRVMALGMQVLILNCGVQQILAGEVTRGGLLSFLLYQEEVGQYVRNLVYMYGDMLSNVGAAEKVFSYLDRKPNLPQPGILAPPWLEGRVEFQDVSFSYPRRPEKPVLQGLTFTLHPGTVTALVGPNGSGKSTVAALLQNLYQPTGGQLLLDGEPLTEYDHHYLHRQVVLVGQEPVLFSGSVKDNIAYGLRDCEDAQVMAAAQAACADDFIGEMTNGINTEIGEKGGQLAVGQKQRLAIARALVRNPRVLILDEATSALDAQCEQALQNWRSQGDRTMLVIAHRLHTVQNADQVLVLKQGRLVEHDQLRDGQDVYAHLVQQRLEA

T2: TAP1 (mouse (endogenous in mouse DC2.4 cells), UniProt P21958 1-724)
T2 construct: Endogenous protein in the cell lysate; also called TAP1/2
T2 sequence (looked up): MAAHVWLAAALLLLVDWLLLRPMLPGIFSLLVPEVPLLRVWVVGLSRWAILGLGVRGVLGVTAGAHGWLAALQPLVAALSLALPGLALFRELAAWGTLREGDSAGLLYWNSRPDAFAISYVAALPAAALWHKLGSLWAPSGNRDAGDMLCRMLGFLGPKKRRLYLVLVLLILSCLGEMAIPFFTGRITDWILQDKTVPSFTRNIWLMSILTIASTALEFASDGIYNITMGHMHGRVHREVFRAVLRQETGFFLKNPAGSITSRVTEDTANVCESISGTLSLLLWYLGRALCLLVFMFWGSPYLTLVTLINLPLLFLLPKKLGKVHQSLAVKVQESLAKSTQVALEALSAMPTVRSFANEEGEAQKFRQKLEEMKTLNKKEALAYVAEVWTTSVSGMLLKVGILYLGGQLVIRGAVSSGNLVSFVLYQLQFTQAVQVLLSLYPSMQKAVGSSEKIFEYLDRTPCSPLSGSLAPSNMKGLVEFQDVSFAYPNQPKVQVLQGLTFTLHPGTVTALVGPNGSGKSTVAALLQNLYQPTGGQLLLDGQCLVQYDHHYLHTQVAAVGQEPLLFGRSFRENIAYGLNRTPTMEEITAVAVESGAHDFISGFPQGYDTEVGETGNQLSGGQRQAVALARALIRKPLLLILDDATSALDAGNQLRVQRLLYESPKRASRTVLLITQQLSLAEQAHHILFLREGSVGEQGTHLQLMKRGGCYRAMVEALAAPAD

B1: CHIP, an E3-ubiquitin ligase (enzyme, mouse (endogenous in mouse DC2.4 cells), UniProt Q9WUD1 1-304, looked up)
chain: MKGKEEKEGGARLGTGGGGSPDKSPSAQELKEQGNRLFVGRKYPEAAACYGRAITRNPLVAVYYTNRALCYLKMQQPEQALADCRRALELDGQSVKAHFFLGQCQLEMESYDEAIANLQRAYSLAKEQRLNFGDDIPSALRIAKKKRWNSIEERRIHQESELHSYLTRLIAAERERELEECQRNHEGHEDDGHIRAQQACIEAKHDKYMADMDELFSQVDEKRKKRDIPDYLCGKISFELMREPCITPSGITYDRKDIEEHLQRVGHFDPVTRSPLTQEQLIPNLAMKEVIDAFISENGWVEDY
B2: biotin-labeled chicken ovalbumin (bOVA) (other, UniProt P01012 2-386, looked up)
chain: GSIGAASMEFCFDVFKELKVHHANENIFYCPIAIMSALAMVYLGAKDSTRTQINKVVRFDKLPGFGDSIEAQCGTSVNVHSSLRDILNQITKPNDVYSFSLASRLYAEERYPILPEYLQCVKELYRGGLEPINFQTAADQARELINSWVESQTNGIIRNVLQPSSVDSQTAMVLVNAIVFKGLWEKAFKDEDTQAMPFRVTEQESKPVQMMYQIGLFRVASMASEKMKILELPFASGTMSMLVLLPDEVSGLEQLESIINFEKLTEWTSSNVMEERKIKVYLPRMKMEEKYNLTSVLMAMGITDVFSSSANLSGISSAESLKISQAVHAAHAEINEAGREVVGSAEAGVDAASVSEEFRADHPFLFCIKHIATNAVLFFGRCVSP
modifications: biotin-labeled (sites not given)

Assays:
[1] = biological target: B2; test: cell-based or functional assay
TAP2 = biological target: T1, TAP2; test: co-immunoprecipitation with anti-TAP2 from DC2.4 lysate, blot with SA-HRP
Experimental: (§1) DC2.4 cells were incubated with bOVA and subjected to co-immunoprecipitation with anti-Sec61α. bOVA was added at 2.5 mg mL⁻¹ to cell lysates before immunoprecipitation (the two left-hand lanes in each panel).
(§2) 2×10⁷ DC2.4 or BMDC cells were cultured for four hours in a medium containing 10 μM MG-132 in the presence of bOVA at 250 μg mL⁻¹. Cells were lysed in 20 mM HEPES pH7.6 containing 1% digitonin and protease inhibitors to collect biotin-labeled samples. The samples were cleared of impurities in advance using protein G sepharose (Amersham Pharmacia Biotech), and after incubation with antibodies for precipitation (anti-Sec61β, anti Sec61α, anti-VCP, anti-BiP, anti-PDI, anti-calreticulin, anti-TAP1, and anti-TAP2), the immunoprecipitates were collected using protein G. When chicken anti-CHIP antibody was used, immunoprecipitates were collected using a rabbit anti-IgY column (a person, MBL). The precipitated samples were analyzed by SDS-PAGE and Western blotting.

TAP1 = biological target: T2, TAP1; test: co-immunoprecipitation with anti-TAP1 from DC2.4 lysate, blot with SA-HRP
Experimental: as §1, §2

| Binder | polyubiquitination of bOVA in CHIP-knocked-down DC2.4 cells relative to parental cells [1] [%] | binding result (TAP2) | binding result (TAP1) |
| --- | --- | --- | --- |
| B1 | 34 |  |  |
| B2 |  | no binding | no binding |
